Results as given in publication PMC3064162.

Target: human C3b (human)
Assay: SPR

With “(R78G)FH1–4^V62 (from UniProt P08603 19-263) (domain or fragment)” the Kd was over 35 µM.
